The text below walks through data of US20130130985A1.

The term IC50 denotes the point on the concentration scale where inhibition reaches its midpoint.

Test [1] deals with human oxytocin receptor (human) (UniProt P30559). The experiment in a line: cell-based or functional assay.
The target in test [2] is human vasopressin V1a receptor (human) (UniProt P37288). The experiment in a line: cell-based or functional assay.
The target of test [3] is human vasopressin V1b receptor (human) (UniProt P47901). Kind of test: cell-based or functional assay.
Sequence of human vasopressin V1b receptor (human) (P47901 whole entry): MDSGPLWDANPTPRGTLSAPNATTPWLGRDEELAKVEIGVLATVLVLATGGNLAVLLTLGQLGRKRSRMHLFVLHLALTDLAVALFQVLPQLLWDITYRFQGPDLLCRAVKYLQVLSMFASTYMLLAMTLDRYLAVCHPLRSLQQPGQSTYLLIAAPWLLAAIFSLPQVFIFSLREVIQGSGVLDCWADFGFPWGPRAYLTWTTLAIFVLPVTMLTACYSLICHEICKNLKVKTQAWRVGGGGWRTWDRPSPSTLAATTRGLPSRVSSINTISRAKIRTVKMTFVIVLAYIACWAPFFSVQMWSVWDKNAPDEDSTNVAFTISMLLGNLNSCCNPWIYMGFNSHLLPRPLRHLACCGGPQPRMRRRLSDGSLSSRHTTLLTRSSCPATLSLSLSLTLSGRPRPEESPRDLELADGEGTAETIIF
Test [4] concerns the target human oxytocin receptor (human) (UniProt P30559). The experiment in a line: radioligand displacement (3H-OT), SPA beads, COS-1 membranes. For orientation: Displacement assays read how much labelled ligand stays bound in the presence of the test substance.
Test [5] deals with human vasopressin V2 receptor (human) (UniProt P30518). Kind of test: radioligand displacement (3H-AVP), filtration, HEK293 membranes.
For test [6], the target named is human vasopressin V1b receptor (human) (UniProt P47901). Kind of test: radioligand displacement (3H-AVP), WGA SPA beads, COS-1 membranes.
Test [7] concerns the target human vasopressin V1a receptor (human) (UniProt P37288). Kind of test: radioligand displacement (125I-V1a linear antagonist), SPA beads, COS-1 membranes.

Sequence of human vasopressin V1a receptor (human) (P37288 whole entry): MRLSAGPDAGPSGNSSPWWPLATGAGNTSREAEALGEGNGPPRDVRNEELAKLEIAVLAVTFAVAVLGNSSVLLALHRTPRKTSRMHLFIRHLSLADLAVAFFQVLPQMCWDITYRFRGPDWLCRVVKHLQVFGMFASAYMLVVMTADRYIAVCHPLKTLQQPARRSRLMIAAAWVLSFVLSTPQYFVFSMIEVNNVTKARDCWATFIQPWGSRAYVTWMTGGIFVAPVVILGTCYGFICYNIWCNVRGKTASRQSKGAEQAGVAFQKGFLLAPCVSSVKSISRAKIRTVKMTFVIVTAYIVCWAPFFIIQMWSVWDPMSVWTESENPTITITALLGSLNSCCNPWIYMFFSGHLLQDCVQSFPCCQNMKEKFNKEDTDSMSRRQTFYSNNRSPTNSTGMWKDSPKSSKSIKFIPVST
Sequence of human oxytocin receptor (human) (P30559 whole entry): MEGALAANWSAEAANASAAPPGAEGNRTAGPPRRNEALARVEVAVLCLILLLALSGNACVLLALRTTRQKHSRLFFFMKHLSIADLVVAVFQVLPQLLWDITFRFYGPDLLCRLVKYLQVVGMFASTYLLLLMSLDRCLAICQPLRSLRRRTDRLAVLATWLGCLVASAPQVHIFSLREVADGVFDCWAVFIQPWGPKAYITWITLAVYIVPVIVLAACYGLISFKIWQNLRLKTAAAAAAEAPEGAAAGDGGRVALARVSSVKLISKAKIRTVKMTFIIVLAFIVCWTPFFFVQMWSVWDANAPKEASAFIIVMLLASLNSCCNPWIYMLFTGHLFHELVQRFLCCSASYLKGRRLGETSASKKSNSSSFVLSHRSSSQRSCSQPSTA

On to [C1,6U]-OT (peptide), for which the EC50, FLIPR calcium assay in test [1] is 1.39 nM; in test [2], 35.9 nM; in test [3], 7.75 nM. Further, the EC50, IP-One HTRF assay in test [1] was 18 nM; in test [2] it was 269 nM; in test [3] it was 510 nM. Besides, the results for the Emax, FLIPR calcium assay in test [1], in test [2] and in test [3] were 86%, 100% and 82%, respectively. Besides, the figures for the Emax, IP-One HTRF assay in test [1], in test [2] and in test [3] were 94%, 70% and 103%, respectively. The IC50 in test [4] is 538 nM; in test [5], 3350 nM; in test [6] it was 1760 nM; in test [7], 127 nM.

[C1,6U]-OT-OH (peptide): in test [3], the EC50, FLIPR calcium assay is 2460 nM; the EC50, IP-One HTRF assay is above 100000 nM; the Emax, FLIPR calcium assay is 63%.

For [CH2-S]-OT (peptide), the Emax, IP-One HTRF assay turned out to be 64% in test [1] and 75% in test [2].

With [Te-Te]-Oxytocin (peptide), in test [1], the EC50, FLIPR calcium assay came out at 11.3 nM; the EC50, IP-One HTRF assay came to 13.3 nM; the Emax, FLIPR calcium assay amounted to 86%; the Emax, IP-One HTRF assay was determined as 98%. In test [2], the EC50, FLIPR calcium assay stood at 4280 nM and the EC50, IP-One HTRF assay is above 10000 nM. The half-inhibitory concentration (IC50) in test [4] came to 8 nM.

Consider dOT (peptide), for which, in test [1], the EC50, FLIPR calcium assay came to 0.39 nM; the EC50, IP-One HTRF assay is 0.71 nM; the Emax, FLIPR calcium assay was found to be 89%; the Emax, IP-One HTRF assay stood at 100%. In test [2], the EC50, FLIPR calcium assay was found to be 46.1 nM and the Emax, FLIPR calcium assay came to 54%. This substance gave a half-maximal inhibitory concentration (IC50) in test [4] of 1.7 nM.
